From patent US20260034194A1, “PHARMACEUTICAL COMPOSITIONS AND METHODS OF TREATING PSP” (priority 2022, published 2026)
Entries after “also recorded” stand apart in the source; their conditions may differ. Read-outs that look alike come from different tables or passages of the source.

Assays:
[1] = read-out: RcSxph affinity for STX; prior radioligand assay; cited from earlier work
[2] = type: binding; conditions: ITC, STX, 25° C.
Protocol: . […] In almost all mutants, binding affinity loss correlated with a reduction in enthalpy, consistent with a loss of interactions (Table S2). […]. […] Together, these three assays (FIGS. 1E and G) provide a robust and versatile suite of options for characterizing STX:Sxph interactions.
ITC measurements were performed at 25° C. using a MicroCal PEAQ-ITC calorimeter (Malvern Panalytical). […]. This STX stock was diluted with the SEC buffer to prepare 100 μM or 300 μM STX solutions having a final buffer composition of 135 mM NaCl, 9 mM HEPES, pH 7.4. […]. The calorimetric experiment settings were: reference power, 5 μcal/s; spacing between injections, 150 s; stir speed 750 rpm; and feedback mode, high. Data were analyzed using MicroCal PEAQ-ITC Analysis Software (Malvern Panalytical) using a single binding site model. The heat of dilution from titrations of 100 μM STX in 135 mM NaCl, 9 mM HEPES, pH 7.4 into 135 mM NaCl, 9 mM HEPES, pH 7.4 was subtracted from each experiment to correct the baseline.

[3] = test system: STX poisoning in female CD-1 mice; type: in vivo; conditions: RcSxph:STX 2:1 molar ratio, 30 nmoles/Kg STX, 60 nmoles/Kg RcSxph, IP, observed up to one hour
[4] = test system: female CD-1 mice; conditions: 60 nmoles/Kg RcSxph, IP, observed up to one hour
[5] = test system: TTX poisoning in female CD-1 mice; conditions: mouse, in vivo, ip
[6] = type: binding
[7] = Thermofluor (TF) assay of STX binding; conditions: 1.1 μM Sxph, 0-20 μM STX; ΔTm at 20 μM toxin

B1: RcSxph: Rana (Lithobates) catesbeianus (American bullfrog) saxiphilin, SEQ ID NO: 1 (protein)
chain: MAPTFQTALFFTIISLSFAAPNAKQVRWCAISDLEQKKCNDLVGSCNVPDITLVCVLRSSTEDCMTAIKDGQADAMFLDSGEVYEASKDPYNLKPIIAEPYSSNRDLQKCLKERQQALAKKMIGHYIPQCDEKGNYQPQQCHGSTGHCWCVNAMGEKISGTNTPPGQTRATCERHELPKCLKERQVALGGDEKVLGRFVPQCDEKGNYEPQQFHGSTGYSWCVNAIGEEIAGTKTPPGKIPATCQKHDLVTTCHYAVAMVKKSSAFQFNQLKGKRSCHSGVSKTDGWKALVTVLVEKKLLSWDGPAKESIQRAMSKFFSVSCIPGATQTNLCKQCKGEEGKNCKNSHDEPYYGNYGAFRCLKEDMGDVAFLRSTALSDEHSEVYELLCPDNTRKPLNKYKECNLGTVPAGTVVTRKISDKTEDINNFLMEAQKRQCKLFSSAHGKDLMFDDSTLQLALLSSEVDAFLYLGVKLFHAMKALTGDAHLPSKNKVRWCTINKLEKMKCDDWSAVSGGAIACTEASCPKGCVKQILKGEADAVKLEVQYMYEALMCGLLPAVEEYHNKDDFGPCKTPGSPYTDFGTLRAVALVKKSNKDINWNNIKGKKSCHTGVGDIAGWVIPVSLIRRQNDNSDIDSFFGESCAPGSDTKSNLCKLCIGDPKNSAANTKCSLSDKEAYYGNQGAFRCLVEKGDVAFVPHTVVFENTDGKNPAVWAKNLKSEDFELLCLDGSRAPVSNYKSCKLSGIPPPAIVTREESISDVVRIVANQQSLYGRKGFEKDMFQLFSSNKGNNLLFNDNTQCLITFDRQPKDIMEDYFGKPYYTTVYGASRSAMSSELISACTIKHC
- Kd [1]: ~1 nM
- Kd [2]: 1.2 ± 0.8 nM
- ΔH [2]: -16.1 ± 0.2 kcal/mol
- ΔS (cal mol^−1 K^−1) [2]: −12.7 ± 0.9 cal mol^−1 K^−1
- ΔH ([2]; listed as RcSxph WT): -16.1 ± 0.2 kcal/mol
- protection of mice from STX poisoning [3]: protects mice from STX poisoning; also recorded: sufficient to protect mice completely from STX intoxication
- adverse effects of RcSxph alone [4]: no detectable adverse effects
- mitigation of TTX poisoning in mice [5]: unable to mitigate TTX poisoning
- ΔTm (TTX-induced change of melting temperature) [6]: 0.3 °C
- ΔTm (STX-induced change of melting temperature) [7]: 3.6 °C
